Assays:
[1] = target: T1, Arp2/3 complex from NIH 3T3 cell lysates (UniProt P61161 1-394; Q99JY9 2-418; Q9WV32 1-372; Q9CVB6 1-300; Q9JM76 2-178; P59999 …); experiment: GST pull-down from NIH 3T3 cell extracts, immunoblot
Protocol: (§1) Recombinant protein purification, in vitro GST-‘pull downs’ and two-hybrid assays. Two-hybrid assays and in vitro translation/GST-pull downs were conducted as previously described (Tominaga et al., supra; Sahai, E. et al., Embo J 17, 1350-61 (1998)). […] Beads were rinsed three times with PBS 1×supplemented with 0.1 μg/μl of BSA and were analyzed by SDS-PAGE and immunoblotted with purified antibodies recognising either Arp3, p34, or actin. For pull-downs from cell extracts, NIH 3T3 cells were lysed and extracted as per (Machesky, L. M. et al., Curr Biol 8, 1347-56 (1998)), and incubated with purified GST-fusion proteins bound to glutathione beads before extensive washing, separation by SDS-PAGE, transfer, and immunoblotting.
After incubation, the complexes were washed extensively and the resulting protein complexes were separated by SDS-PAGE, transferred to membranes, and analyzed by Western blots using antibodies directed to actin, Arp3 and p34 Arc (Welch, M. D. et al., Nature 385, 265-9 (1997)).

[2] = target: T1, Arp2/3 complex from NIH 3T3 cell lysates; experiment: GST pull-down from NIH 3T3 cell lysates, immunoblot with anti-p34 Arc
Protocol: 15 μg of the indicated fusion protein was indubated with lysates as in FIGS. 7a-7c. Bound material was detected after extensive washing and immunoblotting with anti-p34 Arc.
as §1

[3] = target: T2, mDia2 DAD (amino acids 1031-1171), yeast two-hybrid Gal4 fusion (mouse, UniProt Q9Z207 1031-1171); experiment: yeast two-hybrid, HIS reporter growth on 3-aminotriazole
T2 construct: Two-hybrid construct; also called DRF-autoregulatory domain; Dia-autoregulatory domain
Protocol: Yeast reporter strain HF7c was transformed with the indicated ‘bait’ (Trp⁻) and ‘prey’ (Leu⁻) plasmids before restreaking on selective plates (His) with increasing concentrations 3-aminotriazole (0, 2, 4, 8, 16, 32, and 64 mM) that selects for correlating expression of the HIS-reporter gene. The indicated numbers correspond to the highest concentration of 3-AT on which there was growth after 3 days. […] The mDia2 plasmid encodes amino acids 47-800.
(§2) Two-hybrid assays and in vitro translation/GST-pull downs were conducted as previously described (Kikyo et al., supra; Hill, C. S. et al., supra). In short, the indicated ‘bait’ proteins were generated by subcloning the indicated cDNAs into pGBT9 Gal4 DNA binding domain plasmid; ‘prey’ were Gal4 activation domain fusion proteins generated in either pGAD 10 or pSE1107. HF7c (Clontech) reporter yeast strain were co-transformed with the indicated plasmids and selected on appropriate plates for bait and prey auxotrophic markers, then restreaked onto His-plate to select for Gal4 regulated HIS reporter expression. Levels of reporter activity were monitored by replicate streaking onto Trp/Leu/His-plates with increasing concentrations (0-64 mM) of 3-aminotriazole.

[4] = target: mDia2 (amino acids 47-800), yeast two-hybrid Gal4 fusion (mouse, UniProt Q9Z207 47-800); experiment: yeast two-hybrid
mDia2 (amino acids 47-800), yeast two-hybrid Gal4 fusion, sequence (Q9Z207 47-800 limits assumed): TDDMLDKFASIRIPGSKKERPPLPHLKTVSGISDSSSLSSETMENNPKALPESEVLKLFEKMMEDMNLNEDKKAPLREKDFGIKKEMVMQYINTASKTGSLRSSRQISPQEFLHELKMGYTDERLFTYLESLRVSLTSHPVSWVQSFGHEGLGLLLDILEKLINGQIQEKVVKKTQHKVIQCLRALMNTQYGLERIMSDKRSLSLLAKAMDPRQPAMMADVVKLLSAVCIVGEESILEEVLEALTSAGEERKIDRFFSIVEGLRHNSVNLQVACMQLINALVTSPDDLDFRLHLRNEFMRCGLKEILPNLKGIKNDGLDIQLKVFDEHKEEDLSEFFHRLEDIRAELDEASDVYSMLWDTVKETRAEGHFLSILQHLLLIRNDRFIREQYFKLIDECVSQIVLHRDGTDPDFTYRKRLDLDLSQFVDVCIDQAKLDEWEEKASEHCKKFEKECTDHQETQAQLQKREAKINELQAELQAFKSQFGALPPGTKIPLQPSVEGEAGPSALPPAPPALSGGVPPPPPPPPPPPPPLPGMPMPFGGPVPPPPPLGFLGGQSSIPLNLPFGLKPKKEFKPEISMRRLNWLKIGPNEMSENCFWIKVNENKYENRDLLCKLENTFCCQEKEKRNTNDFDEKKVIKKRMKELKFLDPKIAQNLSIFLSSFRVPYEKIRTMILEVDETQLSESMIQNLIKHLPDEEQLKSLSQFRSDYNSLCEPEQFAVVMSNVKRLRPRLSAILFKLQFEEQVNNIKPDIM
Protocol: as §2
The mutants were tested for binding by two-hybrid analysis and were then expressed in cells.

Binder	binding result [1]	binding result [4]	also measured
GST fusion of mDia2 FH2 (amino acids 801-910) (other, not shown: glutathione-S-transferase tag of pGEX-KG) AVSTACEEIKKSKGFSKLLELVLLMGNYMNAGSRNAQTFGFDLSSLCKLKDTKSADQKTTLLHFLVDVCEEKHADILHFVDDLAHLDKASRVSVEMLEKNVKQMGRQLQQ	no binding	–	–
GST-DAD K1059E/R1060E (other, not shown: Glutathione-S-transferase carrier (pGEX-KG) and its linker at the N end) MKTEGDETGVMDSLLEALQSGAAFRDRREETPKLKDIRQSLSPMSQRPVLKVCNHENQKMQLTEGSRPHHSINCNSTRTPVAKELNYNLDTHASTGRIKAVEKEACNAESNKKKEMELLGSVAKSESVPEVEALLARLRAL	–	–	binding result [2]: no binding (tested: 15 ug fusion protein)
GST-DAD R1057E/R1058E (other, not shown: Glutathione-S-transferase carrier (pGEX-KG) and its linker at the N end) MKTEGDETGVMDSLLEALQSGAAFRDEEKRTPKLKDIRQSLSPMSQRPVLKVCNHENQKMQLTEGSRPHHSINCNSTRTPVAKELNYNLDTHASTGRIKAVEKEACNAESNKKKEMELLGSVAKSESVPEVEALLARLRAL	–	–	binding result [2]: no binding (tested: 15 ug fusion protein)
mDia2 FH1 (amino acids 521-630), yeast two-hybrid Gal4 fusion (other, not shown: small tags and cut ends) AELQAFKSQFGALPPGTKIPLQPSVEGEAGPSALPPAPPALSGGVPPPPPPPPPPPPPLPGMPMPFGGPVPPPPPLGFLGGQSSIPLNLPFGLKPKKEFKPEISMRRLNW	–	–	binding result [3]: no binding
mDia2 FH2 (amino acids 801-910), yeast two-hybrid Gal4 fusion (other, not shown: small tags and cut ends) AVSTACEEIKKSKGFSKLLELVLLMGNYMNAGSRNAQTFGFDLSSLCKLKDTKSADQKTTLLHFLVDVCEEKHADILHFVDDLAHLDKASRVSVEMLEKNVKQMGRQLQQ	–	–	binding result [3]: no binding
mDia2 DAD M1041A, yeast two-hybrid Gal4 fusion (other, not shown: small tags and cut ends) MKTEGDETGVADSLLEALQSGAAFRDRRKRTPKLKDIRQSLSPMSQRPVLKVCNHENQKMQLTEGSRPHHSINCNSTRTPVAKELNYNLDTHASTGRIKAVEKEACNAESNKKKEMELLGSVAKSESVPEVEALLARLRAL	–	no binding	–
mDia2 DAD L1044A, yeast two-hybrid Gal4 fusion (other, not shown: small tags and cut ends) MKTEGDETGVMDSALEALQSGAAFRDRRKRTPKLKDIRQSLSPMSQRPVLKVCNHENQKMQLTEGSRPHHSINCNSTRTPVAKELNYNLDTHASTGRIKAVEKEACNAESNKKKEMELLGSVAKSESVPEVEALLARLRAL	–	no binding	–
mDia2 DAD L1048A, yeast two-hybrid Gal4 fusion (other, not shown: small tags and cut ends) MKTEGDETGVMDSLLEAAQSGAAFRDRRKRTPKLKDIRQSLSPMSQRPVLKVCNHENQKMQLTEGSRPHHSINCNSTRTPVAKELNYNLDTHASTGRIKAVEKEACNAESNKKKEMELLGSVAKSESVPEVEALLARLRAL	–	no binding	–
GST fusion of mDia2 GBD (amino acids 101-216) (other, not shown: glutathione-S-transferase tag of pGEX-KG) VLKLFEKMMEDMNLNEDKKAPLREKDFGIKKEMVMQYINTASKTGSLRSSRQISPQEFLHELKMGYTDERLFTYLESLRVSLTSHPVSWVQSFGHEGLGLLLDILEKLINGQIQEK	no binding	–	–
GST fusion of mDia2 FH1 (amino acids 521-630) (other, not shown: glutathione-S-transferase tag of pGEX-KG) AELQAFKSQFGALPPGTKIPLQPSVEGEAGPSALPPAPPALSGGVPPPPPPPPPPPPPLPGMPMPFGGPVPPPPPLGFLGGQSSIPLNLPFGLKPKKEFKPEISMRRLNW	no binding	–	–

From patent US20040072301A1 (VAN ANDEL RESEARCH INSTITUTE, published 2004)
